These results are taken from paper PMC4958592 (Molecular cell, 2016).

In the experiment the target is methyltransferase domain of Mettl3 (MTD3, residues 357-580) (human, UniProt Q86U44 357-580). The experiment in a line: SEC-MALS. On the technique in general: In gel filtration, larger molecules generally elute earlier.
Sequence of methyltransferase domain of Mettl3 (MTD3, residues 357-580) (Q86U44 357-580): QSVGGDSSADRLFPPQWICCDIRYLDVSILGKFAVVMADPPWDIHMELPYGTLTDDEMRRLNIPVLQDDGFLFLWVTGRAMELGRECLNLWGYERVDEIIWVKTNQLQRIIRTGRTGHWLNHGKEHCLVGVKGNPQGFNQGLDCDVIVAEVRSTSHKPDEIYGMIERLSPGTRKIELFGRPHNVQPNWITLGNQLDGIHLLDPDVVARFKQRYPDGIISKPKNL

B1: methyltransferase domain of Mettl14 (MTD14, residues 111-456) (domain or fragment, human, UniProt Q9HCE5 111-456, looked up)
chain: QSLNPHNDYCQHFVDTGHRPQNFIRDVGLADRFEEYPKLRELIRLKDELIAKSNTPPMYLQADIEAFDIRELTPKFDVILLEPPLEEYYRETGITANEKCWTWDDIMKLEIDEIAAPRSFIFLWCGSGEGLDLGRVCLRKWGYRRCEDICWIKTNKNNPGKTKTLDPKAVFQRTKEHCLMGIKGTVKRSTDGDFIHANVDIDLIITEEPEIGNIEKPVEIFHIIEHFCLGRRRLHLFGRDSTIRPGWLTVGPTLTNSNYNAETYASYFSAPNSYLTGCTEEIERLRPKSPPPKSKSDRGGGAPRGGGRGGTSAGRGRERNRSNFRGERGGFRGGRGGAHRGGFPPR
B1: the stoichiometry N (in general, the number of molecules, sites or subunits per partner or assembly) is 1.
